Article PMC8484605, “A complex of BRCA2 and PP2A-B56 is required for DNA repair by homologous recombination” (Nature Communications, 2021)
Values belong to the molecule of their own block, whether it stands above or below them. Square brackets hold non-standard residues; d marks the D form. Ends that are not written are not given here. pT = C[C@@H](OP(=O)(O)O)[C@H](N)C(=O)O; pS = N[C@@H](COP(=O)(O)O)C(=O)O

Experiments:
B56α [1] = target: T1, B56α (Homo sapiens, UniProt Q15172); experiment: isothermal titration calorimetry; settings: reference: unphosphorylated peptide
T1 sequence (Q15172 whole entry): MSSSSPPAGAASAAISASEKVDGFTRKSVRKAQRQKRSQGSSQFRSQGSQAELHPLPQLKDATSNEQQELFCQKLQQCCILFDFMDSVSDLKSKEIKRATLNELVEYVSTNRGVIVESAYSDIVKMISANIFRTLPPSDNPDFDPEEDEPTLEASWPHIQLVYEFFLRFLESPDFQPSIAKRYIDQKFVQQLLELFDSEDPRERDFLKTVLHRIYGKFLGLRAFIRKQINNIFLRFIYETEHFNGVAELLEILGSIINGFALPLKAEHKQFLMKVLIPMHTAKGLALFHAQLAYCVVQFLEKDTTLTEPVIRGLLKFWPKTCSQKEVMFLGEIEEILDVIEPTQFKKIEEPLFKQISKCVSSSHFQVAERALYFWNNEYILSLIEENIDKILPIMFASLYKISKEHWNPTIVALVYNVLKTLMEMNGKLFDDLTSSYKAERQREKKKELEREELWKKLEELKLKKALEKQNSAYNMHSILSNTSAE

U2OS Flp-In T-REx cells [2] = experiment: Colony formation assay: MMC sensitivity; assay type: cell-based, human
Procedure: For transient protein expression, cells were transfected with Lipofectamine 2000 (Invitrogen) and the plasmid of interest and incubated for 48 h unless otherwise stated. For BRCA2 knockdown, cells were transfected twice with 10 nM Silencer Select BRCA2 s2084 siRNA and 10 nM Silencer Select BRCA2 s2085 siRNA (Ambion) using Lipofectamine RNAiMAX (Invitrogen) 24 and 48 h before the experiment. A luciferase oligo (5′-[sequence]dTdT-3′, Sigma) was used for control (Ctrl).
U2OS Flp-In T-REx parental cells or stably expressing siRNA-resistant venus-MBP-BRCA2 constructs were transfected with Ctrl or BRCA2 siRNA as described above. Then, cells were either treated with 0, 3, or 10 ng/mL Mitomycin C for 24 h followed by reseeding into normal growth medium or reseeded directly and either treated for 24 h with 0, 5, or 15 nM CPT or continuously maintained in medium containing 0, 5.6, 16.7, or 50 nM Olaparib. […] The plates were scanned on a GelCount (Oxford Optronix), and the number of colonies were quantified using the GelCount software (version 1.3.04). The plating efficiency (%) for each well was calculated as the number of colonies divided by the number of cells seeded times 100. The surviving fraction for each dose of drug was calculated by normalizing the plating efficiency to that of the unperturbed condition. […]

[3] = test system: BRCA2 pT1104/pS1106 and pT1128; experiment: Western blot of BRCA2 phosphorylation in BRCA2 immunoprecipitates; assay type: cell-based, human; settings: U2OS Flp-In T-REx, S-phase, released 1 h, 2 μM CPT for 1 h
Procedure: For immunoprecipitations of endogenous BRCA2, U2OS Flp-In T-REx cells were synchronized to S-phase as described above, released for 1 h, and treated for 1 h with 2 μM CPT in presence or absence of 25 μM KU55933 (ATM kinase inhibitor) and 5 μM AZ20 (ATR kinase inhibitor). Cells were lysed in RIPA buffer, and proteins were immunoprecipitated on BRCA2 antibody-conjugated (Millipore Cat# OP95, RRID:AB_2067762) Rec-protein G Sepharose 4B beads (Invitrogen) for 1 h at 4 °C and washed in RIPA buffer prior to elution.
All buffers were supplemented with 1 mM DTT, Complete protease inhibitor cocktail (Roche), and PhosSTOP phosphatase inhibitor cocktail (Roche). For λ phosphatase treatment experiments, immunoprecipitants on beads were washed in buffer without phosphatase inhibitor and incubated with λ phosphatase (Sigma–Aldrich) in the applied buffer for 20 min at 30 °C before elution. Immunoprecipitants were eluted in 2× NuPage LDS sample buffer (Invitrogen). Whole-cell extracts and immunoprecipitations were analyzed by SDS-PAGE and western blotting or mass spectrometry analysis. For western blotting, samples were boiled for 5 min in NuPage LDS sample buffer and run on NuPage Bis-Tris 4–12% protein gels (Invitrogen), and proteins were transferred to PVDF membranes (Immobilon-FL, Merck). […] Quantification of western blots were carried out in ImageStudioLite (version 5.2.5., LI-COR). […]

U2OS Flp-In T-REx cells [4] = experiment: Colony formation assay: CPT sensitivity; assay type: cell-based, human
Procedure: For transient protein expression, cells were transfected with Lipofectamine 2000 (Invitrogen) and the plasmid of interest and incubated for 48 h unless otherwise stated. For BRCA2 knockdown, cells were transfected twice with 10 nM Silencer Select BRCA2 s2084 siRNA and 10 nM Silencer Select BRCA2 s2085 siRNA (Ambion) using Lipofectamine RNAiMAX (Invitrogen) 24 and 48 h before the experiment. A luciferase oligo ([NT], Sigma) was used for control (Ctrl). U2OS Flp-In T-REx parental cells or stably expressing siRNA-resistant venus-MBP-BRCA2 constructs were transfected with Ctrl or BRCA2 siRNA as described above. […] Reseeding was performed by trypsinizing the cells, dissolving into growth medium, and counting the number of cells using the Scepter Cell Counter (Merck), followed by seeding a known number of cells into six-well plates containing growth medium. After 11 days, the cells were fixed and stained in 0.5% methylviolet, 25% methanol. The plates were scanned on a GelCount (Oxford Optronix), and the number of colonies were quantified using the GelCount software (version 1.3.04). The plating efficiency (%) for each well was calculated as the number of colonies divided by the number of cells seeded times 100. The surviving fraction for each dose of drug was calculated by normalizing the plating efficiency to that of the unperturbed condition. […]

B56α [5] = target: T1, B56α; experiment: Isothermal titration calorimetry (ITC) of BRCA2 peptides binding to B56α; parameters: His; made in house; host or cells: E. coli BL21 Rosetta2 (DE3) R3 T1; settings: ITC at 25 °C; 50 mM sodium phosphate pH 7.5, 150 mM NaCl, 0.5 mM TCEP; peptide titrated into B56α; single-site model; error = standard error of the fitting; performed once
Procedure: Both recombinant B56α and synthetic BRCA2 peptides were extensively dialyzed prior to ITC experiments against the ITC buffer (50 mM sodium phosphate pH 7.5, 150 mM NaCl, 0.5 mM TCEP). All experiments were performed on a MicroCal Auto-iTC200 (Malvern Panalytical) instrument at 25 °C (Auto-iTC200 version 1.1.1.0, iTC200 version 1.26.4, Origin version 7.0552 SR4). Both peptide and B56α concentrations were determined using a spectrophotometer by measuring the absorbance at 280 nm and applying values for the extinction coefficients as computed from the corresponding sequences by the ProtParam program (http://web.expasy.org/protparam/). The BRCA2 peptides were loaded into the syringe and titrated into the calorimetric cell containing B56α. The reference cell was filled with distilled water. Control experiments with the peptides injected in the sample cell filled with buffer were carried out under the same experimental conditions. […] The titration sequence consisted of a single 0.4 μl injection followed by 19 injections, 2 μl each, with 150 s spacing between injections to ensure that the thermal power returns to the baseline before the next injection. The stirring speed was 750 rpm. […] Data were analysed with MicroCal PEAQ-ITC analysis software (version 1.1.0.1262., Malvern Panalytical).

U2OS Flp-In T-REx cells [6] = experiment: Colony formation assay: Olaparib sensitivity; assay type: cell-based, human
Procedure: For transient protein expression, cells were transfected with Lipofectamine 2000 (Invitrogen) and the plasmid of interest and incubated for 48 h unless otherwise stated. For BRCA2 knockdown, cells were transfected twice with 10 nM Silencer Select BRCA2 s2084 siRNA and 10 nM Silencer Select BRCA2 s2085 siRNA (Ambion) using Lipofectamine RNAiMAX (Invitrogen) 24 and 48 h before the experiment. A luciferase oligo ([NT], Sigma) was used for control (Ctrl). U2OS Flp-In T-REx parental cells or stably expressing siRNA-resistant venus-MBP-BRCA2 constructs were transfected with Ctrl or BRCA2 siRNA as described above. […] Reseeding was performed by trypsinizing the cells, dissolving into growth medium, and counting the number of cells using the Scepter Cell Counter (Merck), followed by seeding a known number of cells into six-well plates containing growth medium. After 11 days, the cells were fixed and stained in 0.5% methylviolet, 25% methanol. The plates were scanned on a GelCount (Oxford Optronix), and the number of colonies were quantified using the GelCount software (version 1.3.04). The plating efficiency (%) for each well was calculated as the number of colonies divided by the number of cells seeded times 100. The surviving fraction for each dose of drug was calculated by normalizing the plating efficiency to that of the unperturbed condition. The plating efficiency data of Figs. 2, 3, and Supplementary Fig. 3 is derived from the unperturbed condition of the MMC sensitivity dataset, and the plating efficiency data of Fig. 4 is derived from the unperturbed condition of the Olaparib sensitivity dataset. Graphs were constructed in PRISM, and one-way ANOVA analyses with Dunnett's multiple comparison tests were performed comparing the mean of each condition to the siBRCA2 + WT condition. Exact p values are provided in the source data.

His-tagged B56α = target: T2, His-tagged B56α (UniProt Q15172 1-486); experiment: ITC; BRCA2 peptide in the syringe titrated into B56α in the cell; 25 °C; 50 mM sodium phosphate pH 7.5, 150 mM NaCl, 0.5 mM TCEP; single-site model; settings: both partners purified
T2 construct: source: E. coli BL21 Rosetta2 (DE3) R3 T1, purified (Ni column, Superdex 200)
T2 sequence (Q15172 whole entry): as above

[7] = BRCA2 depletion (siBRCA2) vs siCtrl
[8] = cells expressing BRCA2 3AQ compared to BRCA2 WT

Molecule: CO[C@@]12[C@H](COC(N)=O)C3=C(C(=O)C(C)=C(N)C3=O)N1C[C@@H]1N[C@@H]12 [MMC, Mitomycin C]
MMC sensitivity (U2OS Flp-In T-REx cells [2]; [7]): hypersensitivity
MMC sensitivity (U2OS Flp-In T-REx cells [2]; cells expressing BRCA2 3AQ or 3DQ compared to BRCA2 WT): hypersensitivity

Molecule: CC[C@@]1(O)C(=O)OCc2c1cc1n(c2=O)Cc2cc3ccccc3nc2-1 [Camptothecin, camptothecin]
phosphorylation of BRCA2 T1104/S1106 and T1128 [3]: stimulated
CPT sensitivity (U2OS Flp-In T-REx cells [4]; [7]): hypersensitivity
CPT sensitivity (U2OS Flp-In T-REx cells [4]; [8]): hypersensitivity

Molecule: O=C(c1cc(Cc2n[nH]c(=O)c3ccccc23)ccc1F)N1CCN(C(=O)C2CC2)CC1 [Olaparib]
Olaparib sensitivity (U2OS Flp-In T-REx cells [6]; [7]): hypersensitivity
Olaparib sensitivity (U2OS Flp-In T-REx cells [6]; [8]): hypersensitivity
Olaparib sensitivity (U2OS Flp-In T-REx cells [6]; cells expressing BRCA2 S1106R, T1116P or T1128I compared to BRCA2 WT): mild sensitivity

B1: BRCA2 1105-1129 peptide (peptide)
peptide: PSQKAEITELSTILEESGSQFEFTQW
notes: human BRCA2, residues 1105-1129; tryptophan at the C-terminus, outside the stated BRCA2 limits; also called BRCA2^1105-1129 WT; source: synthetic peptide (Peptide 2.0 Inc.)
Kd (His-tagged B56α): 7.76 µM
stoichiometry N (His-tagged B56α): 0.99

B2: BRCA2 1105-1129 T1116P peptide (peptide)
peptide: PSQKAEITELSPILEESGSQFEFTQW
notes: human BRCA2, residues 1105-1129 with the missense variant T1116P reported in individuals (ClinVar); tryptophan at the C-terminus, outside the stated BRCA2 limits; also called c.3346 A > C; source: synthetic peptide (Peptide 2.0 Inc.)
Kd (His-tagged B56α): 6.92 µM
stoichiometry N (His-tagged B56α): 0.85

B3: BRCA2 1105-1129 T1128I peptide (peptide)
peptide: PSQKAEITELSTILEESGSQFEFIQW
notes: human BRCA2, residues 1105-1129 with the missense variant T1128I reported in individuals (ClinVar); tryptophan at the C-terminus, outside the stated BRCA2 limits; also called c.3383 C > T; source: synthetic peptide (Peptide 2.0 Inc.)
Kd (His-tagged B56α): 7.43 µM
stoichiometry N (His-tagged B56α): 1.01

B4: BRCA2 1105-1129 S1106R peptide (peptide)
peptide: PRQKAEITELSTILEESGSQFEFTQW
notes: human BRCA2, residues 1105-1129 with the missense variant S1106R reported in individuals (ClinVar); tryptophan at the C-terminus, outside the stated BRCA2 limits; also called c.3318 C > G; source: synthetic peptide (Peptide 2.0 Inc.)
Kd (His-tagged B56α): 2.93 µM
stoichiometry N (His-tagged B56α): 0.95

B5: BRCA2 1113-1129 pS1123, pT1128 peptide (peptide)
peptide: WELSTILEESG[pS]QFEF[pT]Q
notes: tryptophan at the N-terminus, outside the stated BRCA2 limits; human BRCA2, residues 1113-1129, S1123 and T1128 phosphorylated; also called double phosphorylated peptide; source: synthetic peptide (Peptide 2.0 Inc.)
Kd (His-tagged B56α): 0.48 µM
stoichiometry N (His-tagged B56α): 0.91

B6: BRCA2 1105-1129 3DQ peptide (peptide)
peptide: PDQKAEITELSTILEESGDQFEFDQW
notes: human BRCA2, residues 1105-1129 with the three SQ/TQ sites changed to DQ (phosphomimetic); tryptophan at the C-terminus, outside the stated BRCA2 limits; source: synthetic peptide (Peptide 2.0 Inc.)
Kd (His-tagged B56α): 3.75 µM
stoichiometry N (His-tagged B56α): 0.86

B7: BRCA2 1108-1126 peptide (peptide)
peptide: WKAEITELSTILEESGSQFE
notes: tryptophan at the N-terminus, outside the stated BRCA2 limits; human BRCA2, residues 1108-1126 with the LxxIxE motif; The added W probably serves the A280 concentration measurement; also called BRCA2^1108-1126 WT; source: synthetic peptide (Peptide 2.0 Inc.)
Kd (His-tagged B56α): 5.17 µM
stoichiometry N (His-tagged B56α): 1.02

B8: BRCA2 1113-1129 pS1123 peptide (peptide)
peptide: WELSTILEESG[pS]QFEFTQ
notes: tryptophan at the N-terminus, outside the stated BRCA2 limits; human BRCA2, residues 1113-1129, S1123 phosphorylated; source: synthetic peptide (Peptide 2.0 Inc.)
Kd (His-tagged B56α): 0.77 µM
stoichiometry N (His-tagged B56α): 0.92

B9: BRCA2 1113-1129 pT1128 peptide (peptide)
peptide: WELSTILEESGSQFEF[pT]Q
notes: tryptophan at the N-terminus, outside the stated BRCA2 limits; human BRCA2, residues 1113-1129, T1128 phosphorylated; source: synthetic peptide (Peptide 2.0 Inc.)
Kd (His-tagged B56α): 1.38 µM
stoichiometry N (His-tagged B56α): 0.94

Now from value to molecule:

binding against the reference (B56α [1]; sites S1106): weaker
Molecule: BRCA2 (from UniProt P51587) pS1106 peptide

fold change (B56α [1]; sites S1123): stronger
Molecule: BRCA2 (from UniProt P51587) pS1123 peptide

fold change (B56α [1]; sites T1128): stronger
Molecule: BRCA2 (from UniProt P51587) pT1128 peptide (printed once as S1128)

fold change (B56α [1]; sites S1123,T1128): stronger
Molecule: BRCA2 (from UniProt P51587) doubly phosphorylated pS1123/pT1128 peptide

KD (B56α [5]): No binding
Molecule: WKAEITEASTALEESGSQFE [BRCA2^1108-1126 2A, synthetic BRCA2 peptide 1108-1126 with L1114A-I1117A]

Kd (His-tagged B56α): 3.82 µM
stoichiometry N (His-tagged B56α): 1.01
B10: BRCA2 1113-1129 peptide (peptide)
peptide: WELSTILEESGSQFEFTQ
notes: tryptophan at the N-terminus, outside the stated BRCA2 limits; human BRCA2, residues 1113-1129; source: synthetic peptide (Peptide 2.0 Inc.)
